Measurements from PMC6409194 (European journal of pharmacology, 2019).

Molecular target: calmodulin (UniProt P0DP23 1-149)
Assay: other fluorescence titration

With FKKAFQNVLRIQCLCRKQSSQHAAGYTLH (domain or fragment) as the binder, how does the Kd read?
Its Kd is 3.8 µM.
